Assay results reported in patent US20140079713A1.

Target: PTCH1-GFP (mouse) (UniProt Q61115)
Assay: cell surface binding of BOC-Fc proteins to COS7 cells expressing PTCH1-GFP, anti-Fc HRP

UniProt Q61115, sequence (Q61115 whole entry): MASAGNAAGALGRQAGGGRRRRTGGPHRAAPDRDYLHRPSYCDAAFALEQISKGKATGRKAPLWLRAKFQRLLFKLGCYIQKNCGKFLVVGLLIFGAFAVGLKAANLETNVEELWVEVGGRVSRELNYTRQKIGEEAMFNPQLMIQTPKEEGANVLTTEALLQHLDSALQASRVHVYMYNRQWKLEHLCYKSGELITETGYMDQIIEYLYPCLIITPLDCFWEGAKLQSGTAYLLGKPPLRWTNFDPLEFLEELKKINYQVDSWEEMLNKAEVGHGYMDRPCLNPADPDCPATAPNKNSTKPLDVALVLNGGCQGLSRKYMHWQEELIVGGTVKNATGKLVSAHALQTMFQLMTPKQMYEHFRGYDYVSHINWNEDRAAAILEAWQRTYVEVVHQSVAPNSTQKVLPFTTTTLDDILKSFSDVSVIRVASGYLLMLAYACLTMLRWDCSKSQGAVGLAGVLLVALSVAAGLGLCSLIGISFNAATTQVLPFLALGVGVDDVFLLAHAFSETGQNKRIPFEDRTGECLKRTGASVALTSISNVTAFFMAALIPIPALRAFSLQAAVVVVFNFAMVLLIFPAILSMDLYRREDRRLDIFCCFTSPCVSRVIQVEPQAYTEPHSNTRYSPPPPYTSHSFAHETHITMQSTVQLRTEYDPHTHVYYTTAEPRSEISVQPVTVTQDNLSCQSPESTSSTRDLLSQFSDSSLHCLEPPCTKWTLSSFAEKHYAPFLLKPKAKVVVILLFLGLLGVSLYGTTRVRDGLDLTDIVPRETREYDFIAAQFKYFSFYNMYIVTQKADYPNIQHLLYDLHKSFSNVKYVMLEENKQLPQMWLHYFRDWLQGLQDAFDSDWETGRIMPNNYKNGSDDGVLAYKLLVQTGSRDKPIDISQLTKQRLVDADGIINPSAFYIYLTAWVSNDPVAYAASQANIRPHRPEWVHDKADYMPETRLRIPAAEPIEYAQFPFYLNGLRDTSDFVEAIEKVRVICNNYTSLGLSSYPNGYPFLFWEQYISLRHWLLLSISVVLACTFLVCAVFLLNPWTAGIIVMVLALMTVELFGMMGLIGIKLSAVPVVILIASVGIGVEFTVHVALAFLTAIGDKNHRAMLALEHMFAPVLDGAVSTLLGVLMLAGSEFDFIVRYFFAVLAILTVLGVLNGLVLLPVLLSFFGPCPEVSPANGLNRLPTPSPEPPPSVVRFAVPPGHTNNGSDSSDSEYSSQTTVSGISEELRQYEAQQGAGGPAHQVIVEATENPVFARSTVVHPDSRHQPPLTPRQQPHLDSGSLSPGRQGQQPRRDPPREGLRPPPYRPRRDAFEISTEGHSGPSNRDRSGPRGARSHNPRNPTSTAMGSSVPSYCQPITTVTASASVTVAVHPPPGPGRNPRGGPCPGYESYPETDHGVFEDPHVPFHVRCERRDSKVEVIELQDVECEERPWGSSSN

| Substance | binding level relative to BOC ecto-Fc [%] |
| --- | --- |
| BOC-Fc construct containing the FNIIIa domain alone (Fc fusion) | 60 |
| BOC-Fc construct containing the FNIIIb domain alone (Fc fusion) | 60 |
